Earlier results, collected in publication PMC6438182.

Target: GATAD2A coiled-coil (Homo sapiens) (UniProt Q86YP4)
Sequence of UniProt Q86YP4 (Q86YP4 137-178): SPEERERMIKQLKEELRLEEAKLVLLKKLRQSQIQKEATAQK

In the case of MBD2 coiled-coil (from UniProt Q9UBB5), the Kd is given as 0.042 µM.
